# Literature values as cited in paper PMC3037977.
# Like-named read-outs stand apart in the source and are kept apart here.
# Columns and labels:
# [1] = biological target: importin β (Homo sapiens) (UniProt Q14974)
# [2] = biological target: importin β (Homo sapiens) (UniProt Q14974); remark: listed apart in the source
# Chain of importin β (Homo sapiens) (Q14974 whole entry): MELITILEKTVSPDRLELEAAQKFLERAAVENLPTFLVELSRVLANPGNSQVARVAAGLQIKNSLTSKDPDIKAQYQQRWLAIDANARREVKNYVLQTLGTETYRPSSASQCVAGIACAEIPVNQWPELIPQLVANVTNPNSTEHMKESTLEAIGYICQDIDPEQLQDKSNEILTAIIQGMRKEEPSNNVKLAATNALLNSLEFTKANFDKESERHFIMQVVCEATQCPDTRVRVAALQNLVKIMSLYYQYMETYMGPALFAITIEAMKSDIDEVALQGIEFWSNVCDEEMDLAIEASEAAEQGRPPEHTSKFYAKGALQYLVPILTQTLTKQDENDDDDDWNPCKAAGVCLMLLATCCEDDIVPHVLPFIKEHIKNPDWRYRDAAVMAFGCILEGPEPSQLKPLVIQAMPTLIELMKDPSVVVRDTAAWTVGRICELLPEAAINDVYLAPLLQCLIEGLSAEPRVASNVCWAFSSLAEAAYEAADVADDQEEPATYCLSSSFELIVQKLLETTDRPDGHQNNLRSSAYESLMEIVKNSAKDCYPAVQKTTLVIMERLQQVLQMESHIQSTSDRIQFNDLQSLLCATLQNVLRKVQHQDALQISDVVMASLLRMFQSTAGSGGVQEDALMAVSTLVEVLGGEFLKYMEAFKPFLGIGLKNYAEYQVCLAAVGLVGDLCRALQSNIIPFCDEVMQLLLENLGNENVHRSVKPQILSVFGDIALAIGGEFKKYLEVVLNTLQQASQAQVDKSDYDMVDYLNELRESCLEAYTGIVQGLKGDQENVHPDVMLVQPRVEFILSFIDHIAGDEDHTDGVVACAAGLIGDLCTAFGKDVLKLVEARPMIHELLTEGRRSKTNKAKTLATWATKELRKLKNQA
# Chain of snurportin IBB domain (O95149 8-76): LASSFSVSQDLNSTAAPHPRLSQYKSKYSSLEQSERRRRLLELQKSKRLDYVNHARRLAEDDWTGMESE
Kd [1] [nM],Kd [2] [nM],Substance
2,,snurportin IBB domain (from UniProt O95149)
,2,importin α1 IBB domain (from UniProt P52292)
